This data set concerns the molecule itself. Description: SEC; Superdex Increase 200 10/300GL, protein in PBS after His Trap purification; step run to remove aggregates.

B1: wild-type hLYVE-1 Δ238 His10 (soluble full ectodomain of human LYVE-1) (domain or fragment, UniProt Q9Y5Y7 20-238, looked up)
chain: LVQGSLRAEELSIQVSCRIMGITLVSKKANQQLNFTEAKEACRLLGLSLAGKDQVETALKASFETCSYGWVGDGFVVISRISPNPKCGKNGVGVLIWKVPVSRQFAAYCYNSSDTWTNSCIPEIITTKDPIFNTQTATQTTEFIVSDSTYSVASPYSTIPAPTTTPPAPASTSIPRRKKLICVTEVFMETSTMSTETEPFVENKAAFKNEAAGFGGVPT
notes: signal peptide in the construct; Obtained as a mixture of monomer and disulfide-linked homodimer; The protein is glycosylated, made in CHO cells; also called hLYVE-1 full wild-type ectodomain; hLYVE-1 Δ238 with a His10 single tag; source: CHO-K1, transfected (pEE14), culture supernatant, purified (His Trap, size exclusion chromatography); not shown: His10, C-terminal, kept
Take B1: the binding result was “binds”.

The values are drawn from PMC11926218, “Structure and unusual binding mechanism of the hyaluronan receptor LYVE-1 mediating leucocyte entry to lymphatics” (Nature Communications, 2025).
